T1: wild-type human GID4 fragment (residues 116-300), purified with N-terminal His-tag (human, UniProt Q8IVV7 116-300)
T1 construct: Expressed in E. coli BL21(DE3), nickel-column purified; also called wild-type GID4; native GID4; not shown: N-terminal six-histidine tag and TEV protease recognition site from the pET21(+) construct
T1 sequence: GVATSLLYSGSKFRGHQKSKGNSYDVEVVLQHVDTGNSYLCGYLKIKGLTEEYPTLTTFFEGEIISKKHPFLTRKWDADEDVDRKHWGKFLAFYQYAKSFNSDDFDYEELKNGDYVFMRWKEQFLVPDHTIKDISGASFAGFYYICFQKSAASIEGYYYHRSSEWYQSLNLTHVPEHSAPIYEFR

B1: NH2-PGLVKSK(biotin)-COOH peptide (peptide)
peptide: H-PGLVKSK(Biotin)-OH
SMILES: CC(C)C[C@H](NC(=O)CNC(=O)[C@@H]1CCCN1)C(=O)N[C@H](C(=O)N[C@@H](CCCCN)C(=O)N[C@@H](CO)C(=O)N[C@@H](CCCCNC(=O)CCCC[C@@H]1SC[C@@H]2NC(=O)N[C@@H]21)C(=O)O)C(C)C
notes: Immobilised on streptavidin biosensors in BLI; in solution in the yeast display sorts; also called Nt-Pro peptide; target peptide
B2: yeast-surface displayed GID4 A252V variant (residues 116-300, HA-tag, (GGGGS)x3 linker, c-Myc-tag) (designed binder)
chain: YPYDVPDYAGGGGSGGGGSGGGGSGVATSLLYSGSKFRGHQKSKGNSYDVEVVLQHVDTGNSYLCGYLKIKGLTEEYPTLTTFFEGEIISKKHPFLTRKWDADEDVDRKHWGKFLAFYQYAKSFNSDDFDYEELKNGDYVFMRWKEQFLVPDHTIKDISGVSFAGFYYICFQKSAASIEGYYYHRSSEWYQSLNLTHVPEHSAPIYEFREQKLISEEDL
notes: also called A252V (Sort 3ii); not shown: yeast-surface display fusion partner encoded by the pCTCON2 plasmid
B3: yeast-surface displayed GID4 S253T variant (residues 116-300, HA-tag, (GGGGS)x3 linker, c-Myc-tag) (designed binder)
chain: B2 chain with V161A, S162T
notes: also called S253T (Sort 3i); not shown: yeast-surface display fusion partner encoded by the pCTCON2 plasmid
B4: yeast-surface displayed GID4 S283F variant (residues 116-300, HA-tag, (GGGGS)x3 linker, c-Myc-tag) (designed binder)
chain: B2 chain with V161A, S192F
notes: also called S283F (Sort 3i); not shown: yeast-surface display fusion partner encoded by the pCTCON2 plasmid

Assay [1] concerns the target T1, wild-type human GID4 fragment (residues …). Description: BLI, biotinylated peptide on streptavidin biosensor, 10 µmol/L protein. How it is done:
High-throughput kinetic measurements were taken using Octet Red96e system with Octet Streptavidin (SA) Biosensors in 96-well format. The highest concentration of protein was prepared by mixing 25% of the total volume with 0.4% BSA in dialysis buffer (1×PBS) and completing subsequent dilutions with 0.1% BSA in dialysis buffer. The SA biosensors were hydrated for 10 min in the dialysis buffer with 0.1% BSA then loaded with NH₂-XXXVKSK(biotin)-COOH (where X are residues specified in the experiment and figures) by moving the sensors into wells with 10 μmol/L of the biotinylated peptide and incubating for 2 min. Unbound peptide was removed by incubating in the dialysis buffer with 0.1% BSA for 2 min in the next wells. The association of GID4 wild-type and variants were then measured by incubating the biosensors in wells with the proteins for 10 min and then dissociation measured by moving the sensors into new wells with dialysis buffer with 0.1% BSA for another 10 min. All wells contained 200 μL of specified solution. The measurements were analyzed with instrument software Data Analysis HT (Version 12).
The association and dissociation of the GID4 wild-type and the six variants to the PGLVKSK(biotin) peptide were evaluated using BLI. BLI is an optical technique that can measure interaction between protein in solution ad peptide immobilized on the biosensor tip. […] The S283F variant has an apparent faster dissociation rate compared to the other singe mutation variants. The apparent faster dissociation rate due to S283F mutation is also present in A252V-S283F mutant, when compared to the A252V-S253T mutant. […] The increase in the BLI response and shift in dissociation rate can be beneficial as an Nt-Pro recognizing protein; differences in off-rate can be used as method to distinguish different Nt-amino acids.
A general note: In BLI a coated tip is dipped into the sample, and binding shifts an interference pattern.

Assay [2] addresses B1. The experiment in a line: yeast-surface display, FACS with biotinylated peptide and streptavidin-R-phycoerythrin. On the procedure:
After expression, aliquots of cells were pelleted at 3000 RPM for 3 min and suspended to 1 mL for sort samples and 100 μL for control samples such that OD₆₀₀=1 in 0.1% BSA in 1× phosphate-buffered saline (PBS, 137 mmol/L NaCl, 2.7 mmol/L KCl, 10 mmol/L sodium phosphate dibasic, 1.8 mmol/L potassium phosphate monobasic, pH 7.4). The samples were prepared with or without 10 μmol/L of NH₂-PGLVKSK(biotin)-COOH peptide, which has biotin attached to the C-terminal lysine residue. Cells were incubated, while rotating with mixing for 90 min at room temperature. Cells were then pelleted at 3600 RPM for 3 min at 4° C. and suspended in 1 mL of 0.1% BSA in PBS with 10 μg/mL of α-c-Myc (9E1) antibody conjugated to Alexa Fluor® 647 and 25 μg/mL of streptavidin conjugated to R-phycoerythrin (FIG. 1c). For control samples, no or single fluorescent probe was included in 100 μL total volume. After incubation in the dark for 40 min on ice, the cells were washed with 0.1% BSA in PBS and kept on ice until running on cell sorter.
Cells were sorted by fluorescence-activated cell sorting (FACS) on Sony SH800 cell sorter with 100 μm chip. Control samples were used to set up compensation and gate for single cells that show binding to both fluorescent probes (Q2 in FIG. 1d). A total of 70345 cells were sorted into two 5 mL FACS tubes with 1 mL of SD-CAA in each and then combined in 14 mL Falcon cell culture tube for growth with additional 2 mL of SD-CAA media and 10 μg/mL of Carb. After ˜36 hrs of growth at 30° C. and 300 RPM, cells were subcultured to expression media and the selecting and sorting repeated, with modification of using 1 μmol/L of the peptide and collecting 10000 cells from gated areas. A third round of expression, selection, and sorting was done using 0.5 μmol/L of the biotinylated peptide. In each round of cell sorting and amplification, ˜10⁷ cells were pelleted and frozen for plasmid extraction.

Changes are numbered by the printed parent chain. Names and notes keep the numbering of the source. *: point of attachment. Biotin = O=C1N[C@H]2[C@H](CS[C@H]2CCCCC(=O)*)N1

These results are taken from patent US20250026797A1 (GOVERNMENT OF THE UNITED STATES OF AMERICA AS REPRESENTED …, published 2025).

With B1, the binding result in assay [1] was “binds”. With B2, the binding result in assay [2] is given as “binds”. Consider B3, for which the binding result in assay [2] is “binds”. Take B4: the binding result in assay [2] is “binds”.
